{
  "source": "patent US20110287512",
  "key": {"[1]": {"system": "ZFP8196 linker 1c (artificial)"}, "[2]": {"system": "ZFP8196 linker TPGLHRPKP (artificial)"}, "[3]": {"system": "ZFP8196 linker TPDRPISTCKP (artificial)"}, "[4]": {"system": "ZFP8196 linker TPDAPKPKP (artificial)"}, "[5]": {"system": "ZFP8196 linker TPSHTPRPKP (artificial)"}, "[6]": {"system": "ZFP8196 linker TSPRLPAPKP (artificial)"}, "[7]": {"system": "ZFP8196 linker 1f (artificial)"}, "[8]": {"system": "ZFP8196 linker TGYSIPRPKP (artificial)"}, "[9]": {"system": "ZFP8196 linker TCPRPPTRKP (artificial)"}, "[10]": {"system": "ZFP8196 linker TGEGGKP (artificial)"}, "[11]": {"system": "ZFP8196 (host, center linker TGEKP) (artificial)"}, "[12]": {"system": "ZFP8196 linker LRQKDERP (artificial)"}, "[13]": {"system": "ZFP8196 linker 1d (artificial)"}, "[14]": {"system": "ZFP8196 linker TVSPAPCRSKP (artificial)"}, "[15]": {"system": "ZFP8196 linker TSSPRSNAKP (artificial)"}, "[16]": {"system": "ZFP8196 linker TEPRAKPPKP (artificial)"}, "[17]": {"system": "ZFP8196 linker TGGGGSQKP (artificial)"}, "[18]": {"system": "ZFP7263 linker TPLCQRPMKQKP (artificial)"}, "[19]": {"system": "ZFP7263 (host, center linker TGSQKP) (artificial)"}, "[20]": {"system": "ZFP7263 linker TGGGGSQKP (artificial)"}, "[21]": {"system": "ZFP7263 linker TYPRPLLAKP (artificial)"}, "[22]": {"system": "ZFP7263 linker LRQKDERP (artificial)"}, "[23]": {"system": "ZFP7263 linker TPRPPIPKP (artificial)"}, "[24]": {"system": "ZFP7263 linker TPNRCPPTKP (artificial)"}, "[25]": {"system": "ZFP7263 linker TQRPQIPPKP (artificial)"}, "[26]": {"system": "ZFP7263 linker TGEGGKP (artificial)"}, "[27]": {"system": "ZFP7264 (host, center linker TGSQKP) (artificial)"}, "[28]": {"system": "ZFP7264 linker TGEGGKP (artificial)"}, "[29]": {"system": "ZFP7264 linker TKHGTPKHREDKP (artificial)"}, "[30]": {"system": "ZFP7264 linker TLPLPRPKP (artificial)"}, "[31]": {"system": "ZFP7264 linker TLPPCFRPKP (artificial)"}, "[32]": {"system": "ZFP7264 linker LRQKDERP (artificial)"}, "[33]": {"system": "ZFP7264 linker TGLPKPKP (artificial)"}, "[34]": {"system": "ZFP7264 linker TSRPRPKP (artificial)"}, "[35]": {"system": "ZFP7264 linker 1e (artificial)"}, "[36]": {"system": "ZFP7264 linker TGGGGSQKP (artificial)"}},
  "data": [
    {"sequence": "TTAGATAAACTGTGCAAAAGGCTATC (double strand) [8196 target gap TG]", "values": [
      {"measurement": "binding signal (normalized ELISA)", "setting": "[1]", "value": 0},
      {"measurement": "binding signal (normalized ELISA)", "setting": "[2]", "value": 0.01},
      {"measurement": "binding signal (normalized ELISA)", "setting": "[3]", "value": 0.02},
      {"measurement": "binding signal (normalized ELISA)", "setting": "[4]", "value": 0.01},
      {"measurement": "binding signal (normalized ELISA)", "setting": "[5]", "value": 0.01},
      {"measurement": "binding signal (normalized ELISA)", "setting": "[6]", "value": 0.01},
      {"measurement": "binding signal (normalized ELISA)", "setting": "[7]", "value": 0.01},
      {"measurement": "binding signal (normalized ELISA)", "setting": "[8]", "value": 0.01},
      {"measurement": "binding signal (normalized ELISA)", "setting": "[9]", "value": 0.01},
      {"measurement": "binding signal (normalized ELISA)", "setting": "[10]", "value": 0},
      {"measurement": "binding signal (normalized ELISA)", "setting": "[11]", "value": 0},
      {"measurement": "binding signal (normalized ELISA)", "setting": "[12]", "value": 0},
      {"measurement": "binding signal (normalized ELISA)", "setting": "[13]", "value": 0.01},
      {"measurement": "binding signal (normalized ELISA)", "setting": "[14]", "value": 0.01},
      {"measurement": "binding signal (normalized ELISA)", "setting": "[15]", "value": 0.01},
      {"measurement": "binding signal (normalized ELISA)", "setting": "[16]", "value": 0.01},
      {"measurement": "binding signal (normalized ELISA)", "setting": "[17]", "value": 0}
    ]},
    {"sequence": "TTAGCCACTCTGATTGGAAGTGTATC (double strand) [7263 target gap AT]", "values": [
      {"measurement": "binding signal (normalized ELISA)", "setting": "[18]", "value": 0.05},
      {"measurement": "binding signal (normalized ELISA)", "setting": "[19]", "value": 0.01},
      {"measurement": "binding signal (normalized ELISA)", "setting": "[20]", "value": 0.01},
      {"measurement": "binding signal (normalized ELISA)", "setting": "[21]", "value": 0.01},
      {"measurement": "binding signal (normalized ELISA)", "setting": "[22]", "value": 0.01},
      {"measurement": "binding signal (normalized ELISA)", "setting": "[23]", "value": 0.01},
      {"measurement": "binding signal (normalized ELISA)", "setting": "[24]", "value": 0.02},
      {"measurement": "binding signal (normalized ELISA)", "setting": "[25]", "value": 0.02},
      {"measurement": "binding signal (normalized ELISA)", "setting": "[26]", "value": 0.01}
    ]},
    {"sequence": "TTAGCCACTCTGCTTGGAAGTGTATC (double strand) [7263 target gap CT]", "values": [
      {"measurement": "binding signal (normalized ELISA)", "setting": "[18]", "value": 0.02},
      {"measurement": "binding signal (normalized ELISA)", "setting": "[19]", "value": 0},
      {"measurement": "binding signal (normalized ELISA)", "setting": "[20]", "value": 0.02},
      {"measurement": "binding signal (normalized ELISA)", "setting": "[21]", "value": 0.01},
      {"measurement": "binding signal (normalized ELISA)", "setting": "[22]", "value": 0.01},
      {"measurement": "binding signal (normalized ELISA)", "setting": "[23]", "value": 0.01},
      {"measurement": "binding signal (normalized ELISA)", "setting": "[24]", "value": 0.01},
      {"measurement": "binding signal (normalized ELISA)", "setting": "[25]", "value": 0.01},
      {"measurement": "binding signal (normalized ELISA)", "setting": "[26]", "value": 0.01}
    ]},
    {"sequence": "TTAGTTAAAGCGCTGCTCCGAATATC (double strand) [7264 target gap CT]", "values": [
      {"measurement": "binding signal (normalized ELISA)", "setting": "[27]", "value": 0},
      {"measurement": "binding signal (normalized ELISA)", "setting": "[28]", "value": 0.03},
      {"measurement": "binding signal (normalized ELISA)", "setting": "[29]", "value": 0},
      {"measurement": "binding signal (normalized ELISA)", "setting": "[30]", "value": 0.03},
      {"measurement": "binding signal (normalized ELISA)", "setting": "[31]", "value": 0.05},
      {"measurement": "binding signal (normalized ELISA)", "setting": "[32]", "value": 0.02},
      {"measurement": "binding signal (normalized ELISA)", "setting": "[33]", "value": 0.02},
      {"measurement": "binding signal (normalized ELISA)", "setting": "[34]", "value": 0.03},
      {"measurement": "binding signal (normalized ELISA)", "setting": "[35]", "value": 0.06},
      {"measurement": "binding signal (normalized ELISA)", "setting": "[36]", "value": 0.07}
    ]},
    {"sequence": "TTAGTTAAAGCGTAGCTCCGAATATC (double strand) [7264 target gap TA]", "values": [
      {"measurement": "binding signal (normalized ELISA)", "setting": "[27]", "value": 0},
      {"measurement": "binding signal (normalized ELISA)", "setting": "[28]", "value": 0.02},
      {"measurement": "binding signal (normalized ELISA)", "setting": "[29]", "value": 0},
      {"measurement": "binding signal (normalized ELISA)", "setting": "[30]", "value": 0.03},
      {"measurement": "binding signal (normalized ELISA)", "setting": "[31]", "value": 0.06},
      {"measurement": "binding signal (normalized ELISA)", "setting": "[32]", "value": 0.02},
      {"measurement": "binding signal (normalized ELISA)", "setting": "[33]", "value": 0.02},
      {"measurement": "binding signal (normalized ELISA)", "setting": "[34]", "value": 0.03},
      {"measurement": "binding signal (normalized ELISA)", "setting": "[35]", "value": 0.05},
      {"measurement": "binding signal (normalized ELISA)", "setting": "[36]", "value": 0.03}
    ]}
  ]
}
